Test results taken from publication PMC4820699, “Localisation and protein-protein interactions of the Helicobacter pylori taxis sensor TlpD and their connection to metabolic functions” (Scientific Reports, 2016).

Molecular target: T1, purified recombinant H. pylori catalase (KatA) (H. pylori, UniProt P77872 1-505)
T1 construct: Catalase KatA of Helicobacter pylori, recombinant, active, tag-free; source: E. coli, recombinant, tag-free, purified
T1 sequence: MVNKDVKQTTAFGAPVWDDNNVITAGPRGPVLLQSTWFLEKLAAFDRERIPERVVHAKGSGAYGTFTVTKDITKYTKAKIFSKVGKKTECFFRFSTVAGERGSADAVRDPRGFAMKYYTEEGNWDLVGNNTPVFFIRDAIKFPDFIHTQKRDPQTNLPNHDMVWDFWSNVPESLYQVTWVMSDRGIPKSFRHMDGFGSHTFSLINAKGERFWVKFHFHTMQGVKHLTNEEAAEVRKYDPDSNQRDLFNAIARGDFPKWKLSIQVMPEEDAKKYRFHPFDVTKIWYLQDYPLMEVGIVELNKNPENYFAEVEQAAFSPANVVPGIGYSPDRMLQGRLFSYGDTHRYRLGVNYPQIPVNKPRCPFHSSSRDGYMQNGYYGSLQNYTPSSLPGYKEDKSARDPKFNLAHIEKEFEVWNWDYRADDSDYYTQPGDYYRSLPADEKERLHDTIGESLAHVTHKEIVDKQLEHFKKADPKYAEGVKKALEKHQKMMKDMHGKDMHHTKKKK
Experiment: BLI; Octet RED96; inverse setting: ligand KatA (tag-free) coupled to the sensor via free amine groups, analyte TlpD-V5 at 200, 400 and 2,000 nM in assay buffer, association 1,800 sec; two-state parallel binding model
Conditions: both partners purified

B1: TlpD-V5 (purified from H. pylori) (natural protein)
chain: not shown
notes: Transducer-like protein / energy taxis sensor TlpD of Helicobacter pylori; tlpD-V5 fusion gene with the potential tlpD promoter region in pHel2; also called TlpD (V5-tagged); native TlpD-V5; not shown: V5, C-terminal, kept
  KD (fast on, slow off; two-state parallel model): 275 nM
  KD (slow on, fast off; two-state parallel model): 2000 nM
